According to patent US20160039921A1 (published 2016):

Molecular target: T1, recombinant human VEGF165 protein (human, UniProt P15692 27-191)
T1 chain: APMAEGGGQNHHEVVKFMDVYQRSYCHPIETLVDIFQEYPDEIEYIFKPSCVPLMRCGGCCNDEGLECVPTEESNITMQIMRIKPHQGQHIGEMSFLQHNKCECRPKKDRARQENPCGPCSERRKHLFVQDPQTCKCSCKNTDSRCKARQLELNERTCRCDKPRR
Assay: competitive ELISA (blocking of biotin-VEGF binding to VEGFR1)

B1: murine PV19 monoclonal antibody (antibody, V domains shown)
VH: QPGGAFWMCVSGGKVTISCKASGYSFTNSGINWVKQAPGKGLKWMGWINTYTGEPTYADDFKGRFAFSLETSASSAYLQINNLKNEDTATYFCARFGDGYYWFFDVWGAGTTVTVS
VL: DIVMSQSPSSLAVSAGEKVTLSCKSSQSLLNSRTRKNFLAWYQQKPGQSPKLLIYWASTRESGVPDRFTGSGSGTDFTLTISSVQAEDLAVYYCKQSYNLYTFGGGPT
- IC50: < 1 nM
